# Measurements: patent US20250382344A1, “Soluble GLP1/GIP/NPY2 Receptor Triple Agonists” (Boehringer Ingelheim International GmH, priority 2024, published 2025)
# Read-outs that look alike come from different tables or passages of the source. *1 amine or outer side, *2 acyl side, *3 side chain or, on linkers, in order; H or OH if unused. Where a SMILES comes first, the peptide text is derived from it. Where no end group is shown, it is not given here. Side-chain parts run from the residue outwards. [ ]: non-standard residue; d: D form. The star is where a group is joined. C20 diacid = O=C(O)CCCCCCCCCCCCCCCCCCC(=O)*; C18 diacid = O=C(O)CCCCCCCCCCCCCCCCC(=O)*; γGlu = O=C(O)[C@H](CCC(=O)[*:2])N[*:1]; εLys = N[C@@H](CCCCN[*:1])C(=O)[*:2]; Aib = CC(C)(N)C(=O)O; Ahx = NCCCCCC(=O)O
# T1: hGIPR (Homo sapiens, UniProt P48546)
# T1 construct: expressed in transfected cells; host or cells: CHO CRE-luciferase reporter cells
# T1 sequence (P48546 22-466): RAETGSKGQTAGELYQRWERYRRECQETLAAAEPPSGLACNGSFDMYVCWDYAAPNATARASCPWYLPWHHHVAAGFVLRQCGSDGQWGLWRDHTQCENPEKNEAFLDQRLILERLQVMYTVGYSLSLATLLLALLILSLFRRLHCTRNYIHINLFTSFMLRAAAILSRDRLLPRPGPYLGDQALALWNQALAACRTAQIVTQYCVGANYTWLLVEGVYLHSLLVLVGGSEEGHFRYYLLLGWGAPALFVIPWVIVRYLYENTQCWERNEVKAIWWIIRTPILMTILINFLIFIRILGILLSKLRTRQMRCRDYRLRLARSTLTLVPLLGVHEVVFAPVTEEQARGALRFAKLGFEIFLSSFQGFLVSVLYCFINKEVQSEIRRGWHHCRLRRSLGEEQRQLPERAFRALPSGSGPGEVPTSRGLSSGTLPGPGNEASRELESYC
# T2: human neuropeptide Y2 receptor (human, UniProt P49146 1-381)
# T2 sequence (looked up): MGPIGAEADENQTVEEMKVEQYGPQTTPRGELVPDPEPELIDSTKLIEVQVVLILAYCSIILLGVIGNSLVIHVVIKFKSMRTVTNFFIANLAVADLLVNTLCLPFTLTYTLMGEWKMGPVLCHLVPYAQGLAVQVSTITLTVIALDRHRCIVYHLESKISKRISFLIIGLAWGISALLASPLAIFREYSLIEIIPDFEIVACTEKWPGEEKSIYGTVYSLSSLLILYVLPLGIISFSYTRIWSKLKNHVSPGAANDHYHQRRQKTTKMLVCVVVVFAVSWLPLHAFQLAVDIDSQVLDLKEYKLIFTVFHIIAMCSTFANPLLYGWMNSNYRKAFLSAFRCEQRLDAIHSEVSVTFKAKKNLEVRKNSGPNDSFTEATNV
# Experiments:
# hGLP1R = target: T3, hGLP1R (Homo sapiens, UniProt P43220); assay: hGLP1R CreLuc assay in 0.5% and 100% plasma (HEK-293 CRE-luciferase reporter cells); format: cell-based; details: HEK-293 reporter cells
# T3 construct: expressed in transfected cells; host or cells: HEK-293 CRE-luciferase reporter cells
# Source text: CHO and HEK-293 recombinant cell lines express a luciferase reporter gene under control of the CAMP responsive element (CRE). As a second recombinant protein the GLP-1 and NPY2 receptors were expressed in the reporter gene HEK cells, and the GIP receptor was expressed in the reporter gene CHO cells, respectively. Stimulation of these recombinant cells with an agonist leads to an increase of intracellular CAMP levels. In the presence of CAMP, the transcription factor CRE binding protein (CREB) binds to the CRE and to the CREB binding protein (CBP), which leads to transcription of the luciferase reporter gene. Peptides upon serial-dilution in 100% DMSO were transferred into 384-well assay plates with 5 μl pre-dispensed assay buffer (1×HBSS, 20 mM HEPES, pH7.4 supplemented with 0.5% human plasma) using acoustic dispensing on a Labcyte ECHO. Cryo-preserved transgenic reporter gene cells were thawed in assay buffer. 20 μl (10.000 cells/well) were added to the plate with the peptides and incubated for 4 hours at 37° C. in a humidified incubator. Following incubation, assay plates are equilibrated to room temperature, followed by addition of 25 μl of Bright-Glo™ Luciferase reagent, incubation at room temperature for 10 minutes and analysis of luminescence (Envision Reader). […] EC50 values were calculated by non-linear regression using sigmoid concentration-response with variable slope.
# The same assays were run in the presence of 100% plasma with no additional buffer constituents.
# hGIPR = target: T1, hGIPR; assay: hGIPR CreLuc assay in 0.5% and 100% plasma (CHO CRE-luciferase reporter cells); format: cell-based
# [1] = target: T2, human neuropeptide Y2 receptor; assay: cell-based or functional assay
# [2] = 0.5% human plasma, read-out: hGLP1R 0.5% hP
# [3] = 0.5% human plasma, read-out: hGIPR 0.5% hP
# [4] = 100% human plasma, read-out: hGIPR 100% hP
# T3 sequence (P43220 24-463): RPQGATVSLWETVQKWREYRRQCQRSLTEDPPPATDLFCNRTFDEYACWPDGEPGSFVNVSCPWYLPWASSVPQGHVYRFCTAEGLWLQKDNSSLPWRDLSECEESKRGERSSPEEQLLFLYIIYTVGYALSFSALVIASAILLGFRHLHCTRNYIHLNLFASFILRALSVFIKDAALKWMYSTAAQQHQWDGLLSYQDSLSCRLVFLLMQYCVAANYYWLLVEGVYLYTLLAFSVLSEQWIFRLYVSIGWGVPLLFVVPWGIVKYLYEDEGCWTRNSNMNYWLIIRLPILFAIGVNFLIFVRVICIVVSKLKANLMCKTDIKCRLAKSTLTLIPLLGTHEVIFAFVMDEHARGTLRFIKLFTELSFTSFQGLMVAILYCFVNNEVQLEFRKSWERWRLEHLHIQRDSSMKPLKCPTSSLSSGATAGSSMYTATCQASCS
"EC50, CreLuc reporter, 0.5% hP [1]","EC50, CreLuc reporter, 100% hP [1]",Molecule,other results
,,"CC[C@H](C)[C@H](NC(=O)[C@H](CC(C)C)NC(=O)[C@H](Cc1c[nH]cn1)NC(=O)[C@H](CCCNC(=N)N)NC(=O)[C@@H](NC(=O)[C@H](Cc1ccccc1)NC(=O)[C@H](C)NC(=O)C(C)(C)NC(=O)[C@H](CCC(N)=O)NC(=O)[C@H](C)NC(=O)[C@H](CCC(N)=O)NC(=O)[C@H](CCCNC(=N)N)NC(=O)[C@H](CC(=O)O)NC(=O)[C@H](CC(C)C)NC(=O)C(C)(C)NC(=O)[C@@H](NC(=O)[C@H](CO)NC(=O)[C@H](Cc1ccc(O)cc1)NC(=O)[C@H](CC(=O)O)NC(=O)[C@H](CO)NC(=O)[C@@H](NC(=O)[C@H](Cc1ccccc1)NC(=O)[C@@H](NC(=O)CNC(=O)[C@H](CCC(=O)O)NC(=O)C(C)(C)NC(=O)[C@@H](N)Cc1ccc(O)cc1)[C@@H](C)O)[C@@H](C)O)[C@@H](C)CC)C(C)C)C(=O)N[C@@H](CC(N)=O)C(=O)N[C@@H](CCCCNC(=O)[C@@H](N)CCCCNC(=O)CC[C@H](NC(=O)CC[C@H](NC(=O)CC[C@H](NC(=O)CC[C@H](NC(=O)CC[C@H](NC(=O)CC[C@H](NC(=O)CCCCCCCCCCCCCCCCC(=O)O)C(=O)O)C(=O)O)C(=O)O)C(=O)O)C(=O)O)C(=O)O)C(=O)NC(C)(C)C(=O)N[C@H](C(=O)N[C@@H](CCCNC(=N)N)C(=O)N[C@@H](CCC(N)=O)C(=O)N[C@@H](CCCNC(=N)N)C(=O)N[C@@H](Cc1ccc(O)cc1)C(N)=O)[C@@H](C)O [Compound 147, Y-Aib-E-G-T-F-T-S-D-Y-S-I-Aib-L-D-R-Q-A-Q-Aib-A-F-V-R-H-L-I-N-K(1,3)-Aib-T-R-Q-R-Y-NH2.C18DA-gGlu-gGlu-gGlu-gGlu-gGlu-gGlu-eLys(1,2)] (H-Y[Aib]EGTFTSDYSI[Aib]LDRQAQ[Aib]AFVRHLINK([εLys-γGlu-γGlu-γGlu-γGlu-γGlu-γGlu-C18 diacid])[Aib]TRQRY-NH2)",EC50 (hGLP1R; [2]): 0.3 nM; EC50 (hGIPR; [3]): 0.2 nM; EC50 (hGIPR; [4]): 5 nM
,,"CC[C@H](C)[C@H](NC(=O)[C@H](C)NC(=O)[C@H](Cc1ccc(O)cc1)NC(=O)[C@H](CC(=O)O)NC(=O)[C@H](CO)NC(=O)[C@@H](NC(=O)[C@H](Cc1ccccc1)NC(=O)[C@@H](NC(=O)CNC(=O)[C@H](CCC(=O)O)NC(=O)C(C)(C)NC(=O)[C@@H](N)Cc1ccc(O)cc1)[C@@H](C)O)[C@@H](C)O)C(=O)NC(C)(C)C(=O)N[C@@H](CC(C)C)C(=O)N[C@@H](CCC(=O)O)C(=O)N[C@@H](CCCCN)C(=O)N[C@@H](CCC(N)=O)C(=O)N[C@@H](C)C(=O)N[C@@H](CCC(N)=O)C(=O)NC(C)(C)C(=O)N[C@@H](C)C(=O)N[C@@H](Cc1ccccc1)C(=O)N[C@H](C(=O)N[C@@H](CCCNC(=N)N)C(=O)N[C@@H](Cc1c[nH]cn1)C(=O)N[C@@H](CC(C)C)C(=O)N[C@H](C(=O)N[C@@H](CC(N)=O)C(=O)N[C@@H](CCCCNC(=O)[C@@H](N)CCCCNC(=O)CC[C@H](NC(=O)CC[C@H](NC(=O)CC[C@H](NC(=O)CC[C@H](NC(=O)CC[C@H](NC(=O)CC[C@H](NC(=O)CCCCCCCCCCCCCCCCC(=O)O)C(=O)O)C(=O)O)C(=O)O)C(=O)O)C(=O)O)C(=O)O)C(=O)NC(C)(C)C(=O)N[C@H](C(=O)N[C@@H](CCCNC(=N)N)C(=O)N[C@@H](CCC(N)=O)C(=O)N[C@@H](CCCNC(=N)N)C(=O)N[C@@H](Cc1ccc(O)cc1)C(N)=O)[C@@H](C)O)[C@@H](C)CC)C(C)C [Compound 142, Y-Aib-E-G-T-F-T-S-D-Y-A-I-Aib-L-E-K-Q-A-Q-Aib-A-F-V-R-H-L-I-N-K(1,3)-Aib-T-R-Q-R-Y-NH2.C18DA-gGlu-gGlu-gGlu-gGlu-gGlu-gGlu-eLys(1,2)]","EC50 (hGLP1R; 100% human plasma, read-out: hGLP1R 100% hP): 8 nM; EC50 (hGIPR; [3]): 0.3 nM; EC50 (hGIPR; [4]): 3.4 nM"
,,"CC[C@H](C)[C@H](NC(=O)[C@H](CO)NC(=O)[C@H](Cc1ccc(O)cc1)NC(=O)[C@H](CC(=O)O)NC(=O)[C@H](CO)NC(=O)[C@@H](NC(=O)[C@H](Cc1ccccc1)NC(=O)[C@@H](NC(=O)CNC(=O)[C@H](CCC(=O)O)NC(=O)C(C)(C)NC(=O)[C@@H](N)Cc1ccc(O)cc1)[C@@H](C)O)[C@@H](C)O)C(=O)NC(C)(C)C(=O)N[C@@H](CC(C)C)C(=O)N[C@@H](CC(=O)O)C(=O)N[C@@H](CCCCN)C(=O)N[C@@H](CCC(N)=O)C(=O)N[C@@H](C)C(=O)N[C@@H](CCC(N)=O)C(=O)NC(C)(C)C(=O)N[C@@H](C)C(=O)N[C@@H](Cc1ccccc1)C(=O)N[C@H](C(=O)N[C@@H](CCCNC(=N)N)C(=O)N[C@@H](Cc1c[nH]cn1)C(=O)N[C@@H](CC(C)C)C(=O)N[C@@H](CC(C)C)C(=O)N[C@@H](CC(N)=O)C(=O)N[C@@H](CCCCNC(=O)[C@@H](N)CCCCNC(=O)CC[C@H](NC(=O)CC[C@H](NC(=O)CC[C@H](NC(=O)CC[C@H](NC(=O)CC[C@H](NC(=O)CC[C@H](NC(=O)CCCCCCCCCCCCCCCCC(=O)O)C(=O)O)C(=O)O)C(=O)O)C(=O)O)C(=O)O)C(=O)O)C(=O)NC(C)(C)C(=O)N[C@H](C(=O)N[C@@H](CCCNC(=N)N)C(=O)N[C@@H](CCC(N)=O)C(=O)N[C@@H](CCCNC(=N)N)C(=O)N[C@@H](Cc1ccc(O)cc1)C(N)=O)[C@@H](C)O)C(C)C [Compound 173, Y-Aib-E-G-T-F-T-S-D-Y-S-I-Aib-L-D-K-Q-A-Q-Aib-A-F-V-R-H-L-L-N-K(1,3)-Aib-T-R-Q-R-Y-NH2.C18DA-gGlu-gGlu-gGlu-gGlu-gGlu-gGlu-eLys(1,2)]",EC50 (hGLP1R; [2]): 0.2 nM; EC50 (hGIPR; [3]): 0.7 nM
20.3 nM,120 nM,Y[Aib]EGTFTSDYSI[Aib]LDEQAQ[Aib]AFVRHLINK([εLys-γGlu-γGlu-γGlu-γGlu-γGlu-C18 diacid])[Aib]TRQRY-NH2 [Compound 108],
27.7 nM,,Y[Aib]EGTFTSDYSI[Aib]LEKQAQ[Aib]AFVRHLINK([γGlu-γGlu-γGlu-εLys-γGlu-γGlu-γGlu-C18 diacid])[Aib]TRQRY-NH2 [Compound 168],
15.9 nM,135 nM,Y[Aib]EGTFTSDYSI[Aib]LEKQAQ[Aib]AFVRHLINK([Ahx-γGlu-γGlu-γGlu-γGlu-γGlu-γGlu-C20 diacid])[Aib]TRQRY-NH2 [Compound 157],
27.3 nM,202 nM,"YXEGTFTSDYSIXLEKQAQXEFVRHLINKXTRQRY (Aib at 2, 13, 20, 30; Lys29 epsilon-amino: C18DA-gGlu-gGlu-gGlu-gGlu-gGlu-OEG-OEG; C-terminal amide) [Compound 98]",
13.3 nM,20.3 nM,"YXEGTFTSDYSIXLEKQAQXAFVRHLLNKXTRQRY (Aib at 2, 13, 20, 30; Lys29 epsilon-amino: C18DA-gGlu-gGlu-gGlu-gGlu-gGlu-gGlu-eLys; C-terminal amide) [Compound 107]",
51.6 nM,232 nM,"YXEGTFTSDYSIXLEAQAQXAFVRHLINKXTRQRY (Aib at 2, 13, 20, 30; Lys29 epsilon-amino: C18DA-gGlu-gGlu-gGlu-gGlu-gGlu-gGlu-eLys; C-terminal amide) [Compound 123]",
17.1 nM,32.9 nM,"YXEGTFTSDYSIALEKQAQXAFVRHLINKXTRQRY (Aib at 2, 20, 30; Lys29 epsilon-amino: C18DA-gGlu-gGlu-gGlu-gGlu-gGlu-gGlu-eLys; C-terminal amide) [Compound 165]",
17.5 nM,85.9 nM,"YXEGTFTSDYSIXLDKQAQXEFVRHLINKXTRQRY (Aib at 2, 13, 20, 30; Lys29 epsilon-amino: C18DA-gGlu-gGlu-gGlu-gGlu-gGlu-gGlu-eLys; C-terminal amide) [Compound 131]",
,39.2 nM,"YXEGTFTSDYSIXLEKQAQXAFVRHLINKXTRQRY (Aib at 2, 13, 20, 30; Lys29 epsilon-amino: C18DA-gGlu-gGlu-gGlu-gGlu-gGlu-OEG-OEG; C-terminal amide) [Compound 117]",
